This is an account of results in publication PMC6275497, “Folding pathway of an Ig domain is conserved on and off the ribosome” (Proceedings of the National Academy of Sciences of the …, 2018).

Assay [1] addresses ribosomal protein uL29 (E. coli (endogenous in E. coli KC6), UniProt P0A7M6 1-63). The assay can be described thus: cryo-EM structure; TnaC-stalled I27[L = 35] ribosome-nascent chain complexes purified from E. coli by the His tag; average resolution 3.2 Å, I27 density ~4.5- to 9-Å; rigid-body fit of PDB 1TIT and PDB 4UY8, uL24 β hairpin remodeled. Conditions: both partners purified.

Assay [2] addresses ribosomal protein uL24 (E. coli (endogenous in E. coli KC6), UniProt P60624 1-104). The assay is described as above. Conditions: both partners purified.

B1: N-terminally His-tagged I27-TnaC[L = 35] nascent chain (titin I27 domain, linker, TnaC arrest peptide), stalled on the ribosome (other)
chain: MDMGHHHHHHHHDYDIPTTLEVLFQGPGTLIEVEKPLYGVEVFVGETAHFEIELSEPDVHGQWKLKGQPLAASPDCEIIEDGKKHILILHNCQLGMTGEVSFQAANTKSAANLKVKELSGSGSGSGGPNILHISVTSKWFNIDNKIVDHRP
modifications: nascent chain held as peptidyl-tRNA on the stalled ribosome
notes: N-terminal leader of the construct as printed; it holds the 8X His tag itself; titin I27 Ig domain, 89-residue construct; numbers count on: the I27 domain itself (L1-L89); linker between I27 and the TnaC arrest peptide; TnaC arrest peptide; also called I27[L = 35]; not shown: His8, N-terminal, kept
Regarding B1, the binding result in assay [1] and in assay [2] was “binds” each time.
